Data as given in article doi:10.1101/2021.08.06.455374 (bioRxiv, 2021).

Target: the molecule itself
Experiment: SEC

B1: dolphin Prestin (SLC26A5) (natural protein)
chain: MDHVEETEILAATQRYYVERPIFSHPVLQERLHKKDKISESIGDKLKQAFTCTPKKIRNIIYMFLPITKWLPAYRFKEYVLGDIVSGISTGVLQLPQGLAFAMLAAVPPVFGLYSSFYPVIMYCFFGTSRHISIGPFAVISLMIGGVAVRLVPDDIVIPGGVNATNSTEARDALRVKVAMSVTLLTGIIQFCLGVCRFGFVAIYLTEPLVRGFTTAAAVHVFTSMLKYLFGVKTKRYSGIFSVVYSTVAVLQNVKNLNVCSLGVGLMVFGLLLGGKEFNERFKEKLPAPIPLEFFAVVMGTGISAGFSLHESYNVDVVGTLPLGLLPPANPDTSLFHLVYVDAIAIAIVGFSVTISMAKTLANKHGYQVDGNQELIALGLCNSTGSLFQTFAISCSLSRSLVQEGTGGKTQLAGCLASLMILLVILATGFLFESLPQAVLSAIVIVNLKGMFMQFSDLPFFWRTSKIELTIWLTTFVSSLFLGLDYGLITAVIIALMTVIYRTQSPSYIVLGQLPDTDVYIDIDAYEEVKEVPGIKIFQINAPIYYANSDLYSSALKRKTGVNPAFILGARRKAMKKYAKEVGNANMANATVVKVDAEVDAEDGTKPEEEEDEIKYPPIVTKSTLPEELQRFMPPGDNVHTIILDFTQVNFMDSVGVKTLAGIVKEYGDVGIYVYLAGCSAQVVSDLTQNQFFENPALLDLLFHSIHDAVLGSQVREALAEQEATAAPPQEDSEPNATPEA
  stoichiometry N: 2
